Experimental data reported in US20200024322A1 (Eli Lilly, published 2020).

Experiments:
human glucagon receptor = target: T1, human glucagon receptor (human, UniProt P47871 26-477); test: [125I]-Gcg competition SPA, hGcgR membranes
T1 construct: whole, on cells; also called hGcgR; GcgR

human GIP receptor = target: T2, human GIP receptor (human, UniProt P48546 22-466); test: [125I]-GIP competition SPA, hGIPR membranes
T2 construct: whole, on cells; also called hGIPR; hGIP-R
T2 sequence (looked up): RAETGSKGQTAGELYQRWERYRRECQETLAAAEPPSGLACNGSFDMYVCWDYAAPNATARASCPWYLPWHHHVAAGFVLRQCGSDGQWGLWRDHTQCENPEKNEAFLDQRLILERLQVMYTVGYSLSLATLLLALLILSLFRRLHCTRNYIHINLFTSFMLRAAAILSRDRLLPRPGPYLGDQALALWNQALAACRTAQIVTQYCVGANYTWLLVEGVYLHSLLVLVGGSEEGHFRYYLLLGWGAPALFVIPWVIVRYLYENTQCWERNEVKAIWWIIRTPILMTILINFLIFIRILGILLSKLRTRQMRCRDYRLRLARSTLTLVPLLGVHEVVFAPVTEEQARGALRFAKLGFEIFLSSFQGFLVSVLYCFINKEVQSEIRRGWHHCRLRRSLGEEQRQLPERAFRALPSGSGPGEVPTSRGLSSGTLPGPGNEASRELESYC

human GLP-1 receptor = target: T3, human GLP-1 receptor (human, UniProt P43220 24-463); test: [125I]-GLP-1 competition SPA, hGLP-1R membranes
T3 construct: whole, on cells; also called hGLP-1R; hGLP1R
Outline: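 Competition binding in 25 mM HEPES pH 7.4, 2.5 mM CaCl₂, 1 mM MgCl₂, 0.1% bacitracin, 0.003% TWEEN-20, EDTA-free protease inhibitors. IC₅₀ from four-parameter nonlinear fit; Kᵢ given as geometric mean ± SEM, n = independent replicates on different days.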

T1 sequence (P47871 26-477): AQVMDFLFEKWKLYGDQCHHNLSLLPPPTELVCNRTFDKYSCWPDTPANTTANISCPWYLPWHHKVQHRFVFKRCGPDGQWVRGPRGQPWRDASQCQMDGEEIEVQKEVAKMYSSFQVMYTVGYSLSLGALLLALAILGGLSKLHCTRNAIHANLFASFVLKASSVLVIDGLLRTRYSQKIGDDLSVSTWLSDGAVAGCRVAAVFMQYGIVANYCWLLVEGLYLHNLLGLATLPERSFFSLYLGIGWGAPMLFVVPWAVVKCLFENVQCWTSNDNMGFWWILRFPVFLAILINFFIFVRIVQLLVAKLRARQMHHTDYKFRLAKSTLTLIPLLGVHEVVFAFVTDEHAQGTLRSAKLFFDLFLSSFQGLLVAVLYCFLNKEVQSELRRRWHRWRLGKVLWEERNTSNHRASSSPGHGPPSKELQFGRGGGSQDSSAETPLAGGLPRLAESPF

B1: Example 221 (peptide)
peptide: YXEGTXTSDYSIXLDEKAQXEFIXYLIEGGPSSGAPPPS
modifications: Aib2; αMeF(2F)6; αMeL13; K17((2-[2-(2-Amino-ethoxy)-ethoxy]-acetyl)2-(γ-Glu)-CO-(CH2)16-CO2H); Aib20; D-Glu24; C-terminal NH2
Human glucagon receptor
  Ki: 154 nM
Human GIP receptor
  Ki: 0.0414 nM
Human GLP-1 receptor
  Ki: 1.77 nM

B2: Example 250 (peptide)
peptide: YXEGTXTSDYSIXLDXKAQXEFIXYLIEGGPSSGAPPPS
modifications: Aib2; αMeF(2F)6; Aib13; Orn16; K17((2-[2-(2-Amino-ethoxy)-ethoxy]-acetyl)2-(γ-Glu)-CO-(CH2)18-CO2H); Aib20; D-Glu24; C-terminal NH2
Human glucagon receptor
  Ki: 198 nM
Human GIP receptor
  Ki: 0.0171 nM
Human GLP-1 receptor
  Ki: 1.72 nM

B3: Example 222 (peptide)
peptide: YXEGTXTSDYSIXLDEKAQXEFIXXLIEGGPSSGAPPPS
modifications: Aib2; αMeF(2F)6; αMeL13; K17((2-[2-(2-Amino-ethoxy)-ethoxy]-acetyl)2-(γ-Glu)-CO-(CH2)18-CO2H); Aib20; D-Glu24; αMeY25; C-terminal NH2
Human glucagon receptor
  Ki: 71.3 nM
Human GIP receptor
  Ki: 0.0495 nM
Human GLP-1 receptor
  Ki: 3.59 nM

B4: Example 226 (peptide)
peptide: YXEGTXTSDYSILLDEKAQXEFIXYLIEGGPSSGAPPPS
modifications: Aib2; αMeF(2F)6; K17((2-[2-(2-Amino-ethoxy)-ethoxy]-acetyl)2-(γ-Glu)-CO-(CH2)18-CO2H); Aib20; D-Glu24; C-terminal NH2
Human glucagon receptor
  Ki: 200 nM
Human GIP receptor
  Ki: 0.0254 nM
Human GLP-1 receptor
  Ki: 4.1 nM

B5: Example 238 (peptide)
peptide: YXEGTXTSDLSIXLDXKAQXEFIXXLIEGGPSSGAPPPS
modifications: Aib2; αMeF(2F)6; αMeL13; Orn16; K17((2-[2-(2-Amino-ethoxy)-ethoxy]-acetyl)2-(γ-Glu)-CO-(CH2)16-CO2H); Aib20; D-Glu24; αMeY25; C-terminal NH2
Human glucagon receptor
  Ki: 230 nM
Human GIP receptor
  Ki: 0.0403 nM
Human GLP-1 receptor
  Ki: 0.548 nM

B6: Example 225 (peptide)
peptide: YXEGTXTSDYSIXLDEKAQXEFIXYLIEGGPSSGAPPPS
modifications: Aib2; αMeF6; Aib13; K17((2-[2-(2-Amino-ethoxy)-ethoxy]-acetyl)2-(γ-Glu)-CO-(CH2)18-CO2H); Aib20; D-Glu24; C-terminal NH2
Human glucagon receptor
  Ki: 714 nM
Human GIP receptor
  Ki: 0.0622 nM
Human GLP-1 receptor
  Ki: 8.79 nM

B7: Example 223 (peptide)
peptide: YXEGTXTSDYSIXLDEKAQXEFIEXLIEGGPSSGAPPPS
modifications: Aib2; αMeF(2F)6; αMeL13; K17((2-[2-(2-Amino-ethoxy)-ethoxy]-acetyl)2-(γ-Glu)-CO-(CH2)18-CO2H); Aib20; αMeY25; C-terminal NH2
Human glucagon receptor
  Ki: 46.5 nM
Human GIP receptor
  Ki: 0.0921 nM
Human GLP-1 receptor
  Ki: 5.62 nM

B8: Example 240 (peptide)
peptide: YXEGTXTSDXSIXLDXKAQXAFIXXLIEGGPSSGAPPPS
modifications: Aib2; αMeF(2F)6; 4Pal10; αMeL13; Orn16; K17((2-[2-(2-Amino-ethoxy)-ethoxy]-acetyl)2-(γ-Glu)-CO-(CH2)16-CO2H); Aib20; D-Glu24; αMeY25; C-terminal NH2
Human glucagon receptor
  Ki: 204 nM
Human GIP receptor
  Ki: 0.0284 nM
Human GLP-1 receptor
  Ki: 0.552 nM

B9: Example 224 (peptide)
peptide: YXEGTXTSDYSIXLDEKAQXEFIXYLIEGGPSSGAPPPS
modifications: Aib2; αMeF(2F)6; Aib13; K17((2-[2-(2-Amino-ethoxy)-ethoxy]-acetyl)2-(γ-Glu)-CO-(CH2)18-CO2H); Aib20; D-Glu24; C-terminal NH2
Human glucagon receptor
  Ki: 627 nM
Human GIP receptor
  Ki: 0.0482 nM
Human GLP-1 receptor
  Ki: 6.86 nM

B10: Example 251 (peptide)
peptide: YXEGTXTSDXSIXLDXKAQXAFIXXLIEGGPSSGAPPPS
modifications: Aib2; αMeF(2F)6; 4Pal10; αMeL13; Orn16; K17((2-[2-(2-Amino-ethoxy)-ethoxy]-acetyl)2-(εK)-CO-(CH2)18-CO2H); Aib20; D-Glu24; αMeY25; C-terminal NH2
Human glucagon receptor
  Ki: 21.2 nM
Human GIP receptor
  Ki: 0.0249 nM
Human GLP-1 receptor
  Ki: 1.09 nM

B11: Example 227 (peptide)
peptide: YXEGTXTSDYSIXLDEKAQXEFIXYLIEGGPSSGAPPPS
modifications: Aib2; αMeF6; αMeL13; K17((2-[2-(2-Amino-ethoxy)-ethoxy]-acetyl)2-(γ-Glu)-CO-(CH2)18-CO2H); Aib20; D-Glu24; C-terminal NH2
Human glucagon receptor
  Ki: 113 nM
Human GIP receptor
  Ki: 0.0146 nM
Human GLP-1 receptor
  Ki: 2.01 nM

B12: Example 242 (peptide)
peptide: YXEGTXTSDVSIXLDXKAQXAFIXXLIEGGPSSGAPPPS
modifications: Aib2; αMeF(2F)6; αMeL13; Orn16; K17((2-[2-(2-Amino-ethoxy)-ethoxy]-acetyl)2-(γ-Glu)-CO-(CH2)16-CO2H); Aib20; D-Glu24; αMeY25; C-terminal NH2
Human glucagon receptor
  Ki: 95.9 nM
Human GIP receptor
  Ki: 0.0604 nM
Human GLP-1 receptor
  Ki: 0.853 nM

B13: Example 244 (peptide)
peptide: YXEGTXTSDLSIXLDXKAQXAFIXXLIEGGPSSGAPPPS
modifications: Aib2; αMeF(2F)6; αMeL13; Orn16; K17((2-[2-(2-Amino-ethoxy)-ethoxy]-acetyl)2-(γ-Glu)-CO-(CH2)16-CO2H); Aib20; D-Glu24; αMeY25; C-terminal NH2
Human glucagon receptor
  Ki: 87.8 nM
Human GIP receptor
  Ki: 0.0308 nM
Human GLP-1 receptor
  Ki: 0.82 nM

B14: Example 236 (peptide)
peptide: YXEGTXTSDYSIXLDXKAQXEFIXXLIEGGPSSGAPPPS
modifications: Aib2; αMeF(2F)6; αMeL13; Orn16; K17((2-[2-(2-Amino-ethoxy)-ethoxy]-acetyl)2-(γ-Glu)-CO-(CH2)16-CO2H); Aib20; D-Glu24; αMeY25; C-terminal NH2
Human glucagon receptor
  Ki: 200 nM
Human GIP receptor
  Ki: 0.0425 nM
Human GLP-1 receptor
  Ki: 1.05 nM

B15: Example 241 (peptide)
peptide: YXEGTXTSDVSIXLDXKAQXTFIXXLIEGGPSSGAPPPS
modifications: Aib2; αMeF(2F)6; αMeL13; Orn16; K17((2-[2-(2-Amino-ethoxy)-ethoxy]-acetyl)2-(γ-Glu)-CO-(CH2)16-CO2H); Aib20; D-Glu24; αMeY25; C-terminal NH2
Human glucagon receptor
  Ki: 167 nM
Human GIP receptor
  Ki: 0.042 nM
Human GLP-1 receptor
  Ki: 0.799 nM

B16: Example 243 (peptide)
peptide: YXEGTXTSDLSIXLDXKAQXTFIXXLIEGGPSSGAPPPS
modifications: Aib2; αMeF(2F)6; αMeL13; Orn16; K17((2-[2-(2-Amino-ethoxy)-ethoxy]-acetyl)2-(γ-Glu)-CO-(CH2)16-CO2H); Aib20; D-Glu24; αMeY25; C-terminal NH2
Human glucagon receptor
  Ki: 145 nM
Human GIP receptor
  Ki: 0.0325 nM
Human GLP-1 receptor
  Ki: 0.67 nM

B17: Example 252 (peptide)
peptide: YXEGTXTSDXSIXLDXKAQXAFIXXLIAGGPSSGAPPPS
modifications: Aib2; αMeF(2F)6; 4Pal10; αMeL13; Orn16; K17((2-[2-(2-Amino-ethoxy)-ethoxy]-acetyl)2-(εK)-CO-(CH2)18-CO2H); Aib20; D-Glu24; αMeY25; C-terminal NH2
Human glucagon receptor
  Ki: 26 nM
Human GIP receptor
  Ki: 0.00971 nM
Human GLP-1 receptor
  Ki: 0.383 nM

B18: Example 239 (peptide)
peptide: YXEGTXTSDXSIXLDXKAQXTFIXXLIEGGPSSGAPPPS
modifications: Aib2; αMeF(2F)6; 4Pal10; αMeL13; Orn16; K17((2-[2-(2-Amino-ethoxy)-ethoxy]-acetyl)2-(γ-Glu)-CO-(CH2)16-CO2H); Aib20; D-Glu24; αMeY25; C-terminal NH2
Human glucagon receptor
  Ki: 596 nM
Human GIP receptor
  Ki: 0.101 nM
Human GLP-1 receptor
  Ki: 2.71 nM
